Experimental data taken from PMC2957524.

System: O=C(O)C(=O)CC1(C(=O)O)C=CC(O)C=C1
Experiment: purified protein
Type: biochemical, Planktothrix agardhii
Details: non-aromatizing decarboxylation to endocyclic diene H2HPP

“AerD (Planktothrix agardhii NIVA-CYA 126/8)” showed a Km of 170 ± 3 µM and a kcat of 4.08 ± 0.017 s⁻¹.
